Assay: soluble on expression in E. coli; label from the status in PepcDB or PDB records

Sequence	soluble on expression in E. coli
MGSDKIHHHHHHMKKSCKVSVHQLQIGNFVRLPVAWKDHPFLFSSFHIKQAAQIELIKNLGIAHVIVDLERSDVEPLSIDAVNPIKLPPAPEIHDLKNDMELYKAEQIEVQKKLRRDIHKTEQNFTRSVAMMRSMISKLRNRPLNAVDDAKDLVHSIVEQLLTSDNLVLHLMSDAKQDESIYYHSLNVAILSMLIAKEMEWSRSEIEAIGLSALFHDVGKLKIPPQILKKSTPWSAPELNFIKQHPLLGVELLKLAENFPPSALPAITNHHEFLDGTGYPKGLKEADLDQMSQLLAVVNEYDSLCYPNPQDKPMMPYAALGHLYKQYKTKLNQEYIGKIIKMLGIYPPGSVVELSSGQYAMVMSVNLQKLLCPKILVYDAQVPKDQAPIVDLELEGISIVRCLPPAALPEKVHEYLNPRERVSYYFGGDSRK	not soluble
MGSDKIHHHHHHMSVPLRAVQLTEPSLFLQEHPEVQFVDLLISDMNGVVRGKRIERNSLPKVFEKGINLPASLFALDITGSTVESTGLGLDIGDADRICYPIPGTLSMEPWQKRPTAQLLMTMHELEGEPFFADPREVLRQVVARFTEMELTIVAAFELEFYLIDQENVNGRPQPPRSPISGKRPQSVQVYSIDDLDEYVECLQDIIDGARAQGIPADAIVAESAPAQFEVNLHHVADPMKACDYAVLLKRLIKNIAYDHEMDTTFMAKPYPGQAGNGLHVHISLLDKHGNNIFTSEDPEQNAALRHAIGGVLETLPASMAFLCPNVNSYRRFGSQFYVPNAPSWGLDNRTVALRVPTGSPDAVRLEHRVAGADANPYLLLASVLAGVHHGLTNKVEPGAPIEGNSYEQLEPSLPNNLRDALRELDDSEILAKYIDPKYIDIFVACKESELEEFEYSISDLEYNWYLHTV	not soluble
MSILAEPKRKQKISIDPQNLTWKNDDQKLSKKLMEKMGWSEGDGLGRNRQGNADSVKLKANTSGRGLGADKMADYDSTWISHHDDFADLLAALNKNKEQEPEQTEEEKNAAAEKISIELKSKSIRRRIHYQKFTRAKDTSNYSDSHKKGILGYGRLKSDNAEEKIEEKTENSSVKSDSSDSQADSQEKKEGNNTVSTLSVGDYFAAKMAALKAKREAAAANQTEVKMEIKTEVEEEESDEEKARRKAEKKERKRLRREQRDKEETLETVETILEVKQEVKEEIIDEEFDEAERKRLKKEKKRLKRLREQQQPENEGAEGGEADEEEIPRKRKKHTEDEH	not soluble
MKNPYVQITDQEQYKKSIRRIPPKDPNIFLIERPTAGEIIALWWTTSSRGKSTDKYIPKYFKRIYRVDMIKQRKLFIKANVISEENNTYVLTELGEMLVHKYFYIIEEHNNSSNDSFNTERRKLADKILYSLGGEI	not soluble
MSLSNRAGEILIVEDSPTQAEHLKHILEETGYQTEHVRNGREAVRFLSLTRPDLIISDVLMPEMDGYALCRWLKGQPDLRTIPVILLTILSDPRDVVRSLECGADDFITKPCKDVVLASHVKRLLSGVKRTEERYSRESITLAFGNEGHHHHHH	soluble
MSLAPPVRSLHIGTVAGFTADPQHLDRIAIHLPALNLPDSLIFARLSKPWASHASGFCFYPEPGDEVVVGFIDSDPRYPMILGALHNPKNTAPFPPDEKNNRKGLIVSQADQTQALMIDTEEKTLRLMAGDNTLTLTGEGNLTMSTPNALQLQADTLGLQADSNLSIAGKQQVEITSAKINMKEGHHHHHH	soluble
MGSDKIHHHHHHMTTKPERVVLIGVAGDSGCGKSTFLRRLIDLFGEEFMTVICLDDYHSLDRKQRKETGITALDPRANNFDLMYEQIKALKEGQTINKPIYNHETGLIDPPEIVKPNHIVVVEGLHPLYDERVRSLLDFSVYFDISDEVKIAWKIQRDMAERGHRYEDVLAAINSRKPDFQKYIEPQREFADVVLQVLPTNLIKDDTDRKVLRVRMLQREGKEGFEPAYLFDEGSTINWTPCGRKLTCSYPGMQLYYGSDVYYGRYVSVLEVDGQFDNLEEVIYIETHLSNTSTKYQGELTQLLLQHREYPGSNNGTGFFQVLTGLKMRAAYERLTAKEAKLAVQV	not soluble
MSPIEKSSKLENVCYDIRGPVLKEAKRLEEEGNKVLKLNIGNPAPFGFDAPDEILVDVIRNLPTAQGYCDSKGLYSARKAIMQHYQARGMRDVTVEDIYIGNGVSELIVQAMQALLNSGDEMLVPAPDYPLWTAAVSLSSGKAVHYLCDESSDWFPDLDDIRAKITPRTRGIVIINPNNPTGAVYSKELLMEIVEIARQHNLIIFADEIYDKILYDDAEHHSIAPLAPDLLTITFNGLSKTYRVAGFRQGWMVLNGPKKHAKGYIEGLEMLASMRLCANVPAQHAIQTALGGYQSISEFITPGGRLYEQRNRAWELINDIPGVSCVKPRGALYMFPKIDAKRFNIHDDQKMVLDFLLQEKVLLVQGTAFNWPWPDHFRIVTLPRVDDIELSLSKFARFLSGYHQL	soluble
ACGYSDRVLQLTLGNSTITTQEAANSVVAYGRWPEFIRDDEANPVDQPTEPDVATCRFYTLDTVMWGKESKGWWWKLPDALRDMGLFGQNMYYHYLGRSGYTVHVQCNASKFHQGALGVFAIPEYCLAGDSDKQRYTSYANANPGERGGKFYSQFNKDNAVTSPKREFCPVDYLLGCGVLLGNAFVYPHQIINLRTNNSATIVLPYVNALAIDSMVKHNNWGIAILPLSPLDFAQDSSVEIPITVTIAPMCSEFNGLRNVTAPKFQ	soluble
MGSSHHHHHHSSGRENLYFQGMVSVTFEPVGKKVEDEPDTILEIARRNGVLIRSDCGGKGVCGKCKVVVVDYRGSLSDITDHERKHLIEEEISKGYRLACQARVEEGRATIFIPPESRLERRKVAGLTIEKEVELNPAVRKVYAEIQPPSIEDQLPDYDRLTRALGDFSLDLETLSEMPKLLREAEWRVTATFWNGRLIDLEKGDVSDRCYGVAVDVGSSKIICHLVDLKSGETIATGYSDNPQVAYGEDIVSRITYASKSAENRKRLQTVVVETVNQIIAELCNESGVDLRHVYEVMIVGNSVMHHLFFGIEPRFIGVSPFTPAVRRGVSFPAEDVGLRINRKGYVSSLPLVAGFVGADAVANIAITGIHKAEEISMVIDIGTNTEIVIGNREKLGVCSAPSGPAFEGAHITFGMKAISGAIDSVRIERDEVIYTTIDNAKAKGLCGTGLIDLIAELYRNGIINRNGKFVKDHSRIIVDGVPKFVVAKAEETEFGKPITVSEKDINELLMAKGAIKSGWMILSERLGIEPDKIERIYLAGSFGRHINVENAKVIGLLPDIPSEKITFAGDTAVGGAKMALKSVRVRDEMEDVVSRLNYVELSVEKNFYSVFVRAIPI	soluble
MSLTEFLERNAALYGSEKCLTEINLDLQESHNVIWREYELIENNPAGEYRRDMTWKVFDEKANRFANLLIKRGIKKGDKVAILLMNCLEWLPIYFGILKAGAVAVPLNFRYTAEEIKYCLELSDSIALVFGPEFIGRIENIYDQIIPKIKLLLFAGENRPSFAESYDRLTANCPSEAPKVEITDDDDAAIYFSSGTTGFPKAILHAHRSLVSACYTEQKHHGQTREDNFLCIPPLYHTGAKMHWFGSLLSGSKAVLLRGIKPEWILRTVSEEKITIVWLLVPWAQDILDAIERGDVKLEDYDLSQWRLMHIGAQPVPPSLIRRWKKYFPHHLYDTNYGLSESAGPGCVHLGVENIHKVGAIGLPGYNWEAKIVDENGCPVKQGEVGELAVKGPGVMKCYYKDPEATAAVLKDGWLLTGDMARMDEDGFIYLVDRKKDVIISGGENIYPVQIEDFLRSHEAIKDAAVIGLPDKRLGEIAAAIIELKPGFECTEEEINKFCLVLPRYKRPRKIIFDKVPRNPTGKIEKPRLREKYGVVALVEAETEGHHHHHH	soluble
MPRPSTCADSGGGMMTTLTARPEAITFDPQQSALIVVDMQNAYATPGGYLDLAGFDVSTTRPVIANIQTAVTAARAAGMLIIWFQNGWDEQYVEAGGPGSPNFHKSNALKTMRKQPQLQGKLLAKGSWDYQLVDELVPQPGDIVLPKPRYSGFFNTPLDSILRSRGIRHLVFTGIATNVCVESTLRDGFFLEYFGVVLEDATHQAGPKFAQKAALFNIETFFGWVSDVETFCDALSPTSFAHIA	not soluble
MNSNRTPSQKVLARQEKIKAVALELFLTKGYQETSLSDIIKLSGGSYSNIYDGFKSKEGLFFEILDDICKKHFHLIYSKTQEIKNGTLKEILTSFGLAFIEIFNQPEAVAFGKIIYSQVYDKDRHLANWIENNQQNFSYNILMGFFKQQNNSYMKKNAEKLAVLFCTMLKEPYHHLNVLINAPLKNKKEQKEHVEFVVNVFLNGINSSKA	soluble
MGSDKIHHHHHHMRIQQLRYLEKIATTGSINEAAKQLFISQPSLSQAMKELEKEYQVQLFYRHKTGITLTDAGREFINYSRSVLDQVNLLNEHFGQGTVRKRIFSVSAQHYAFVVNAFVELVKEIGGDTYQFTLRETETANVLNDVQTLKSELGVIYLNKFNQTVLSRLIADKDLSFVPLFEARPHVFVGRDNPLTHKQDLTLDDLRDYPYLSYEQGDTSSFYFAEEILSTLPHKKHIRISDRATIFNLMVGLNGYTISSGIISSELNDEKIVAIPLKVDDAMTLGYLRHKKIELSATAQRYLTLLKQHIQGYGFDVFNDN	not soluble
MTTCFCTGARSGPTVAISADLHQALRGIVAQRMATDPAHDLAHLDRVWVNVQAIASPGADRDVLLAASYLHDLVNLPKNAPDRHTASRRSADEAAPILRDLGFDEAQIAATGHAIAAHSFSAGISPESEEARILRDADRLDALGAIGIARNFSVSGSLGRALYDPADPFCERRTPDDALYSLDHWRVKLLSLPQGMLTDKGRALAEARIALMLRFLDDFAAEIGTPLPEGWTRGLEHHHHHH	soluble
MCHNGRMESLSLSHHFLIAMPGMGDPLFAKSLVYLCEHGEHGAMGLIINKPSGIAMAQLFDQIDLPLDDEDTRTGLVYFGGPVQPDRGFVLHQPAGNWQSSLMVTDDIALTTSKDVLVAVSEGKKPEQLLISLGYAGWSAGQLEKEIADNGWLTVPAEPSIVFDLPYEERYDAAMALLGFDPSLLSSDVGHALEHHHHHH	soluble
VSIKKSSGLNFDNTAIAINAGKGLEFDTNTSESPDINPIKTKIGSGIDYNENGAMITKLGAGLSFDNSGAITIGNKNDDKLTLWTTPDPSPNCRIHSDNDCKFTLVLTKCGSQVLATVAALAVSGDLSSMTGTVASVSIFLRFDQNGVLMENSSLKKHYWNFRNGNSTNANPYTNAVGFMPNLLAYPKTQSQTAKNNIVSQVYLHGDKTKPMILTITLNGTSESTETSEVSTYSMSFTWSWESGKYTTETFATNSYTFSYIAQE	soluble

— the DeepSol protein solubility set
